Patent US20030148447A1 (ZymoGenetics, published 2003)

How the values were obtained:
[1] = target: factor present in the activated CD3+ selected human T-cell conditioned media; assay: cell-based or functional assay
[2] = target: factor present in the activated monkey spleen conditioned media; assay: cell-based or functional assay

B1: zalpha11CEE soluble receptor (zalpha11 extracellular domain with C-terminal Glu-Glu tag) (receptor)
chain: not shown
modifications: first Trp of the WSXWS motif C-mannosylated in ~46% of molecules (BHK)
For B1, the “inhibition of conditioned-medium-driven BaF3/Zalpha11 cell growth; soluble receptor concentration giving complete inhibition” value [1] was 10 µg/mL, the “titration of soluble receptor; lowest concentration completely inhibiting BaF3/Zalpha11 growth” value [1] was 20 ng/mL and the “inhibition of conditioned-medium-driven BaF3/Zalpha11 cell growth; soluble receptor concentration giving complete inhibition” value [2] was 10 µg/mL. For the same binder, the “titration of soluble receptor; lowest concentration completely inhibiting BaF3/Zalpha11 growth” value [2] was 20 ng/mL.

B2: zalpha11CFLG soluble receptor (zalpha11 extracellular domain with C-terminal FLAG tag) (receptor)
chain: not shown
modifications: first Trp of the WSXWS motif C-mannosylated in ~35% of molecules (BHK)
In the case of B2, the “inhibition of conditioned-medium-driven BaF3/Zalpha11 cell growth; soluble receptor concentration giving complete inhibition” value [1] is reported as 10 µg/mL, the “titration of soluble receptor; lowest concentration completely inhibiting BaF3/Zalpha11 growth” value [1] is reported as 20 ng/mL and the “inhibition of conditioned-medium-driven BaF3/Zalpha11 cell growth; soluble receptor concentration giving complete inhibition” value [2] is reported as 10 µg/mL. For the same binder, the “titration of soluble receptor; lowest concentration completely inhibiting BaF3/Zalpha11 growth” value [2] was 20 ng/mL.
